# Experimental data taken from patent US20170049848A1, “Target for Firmicutes and Related Bacteria: The PRP Protease” (VIRGINIA COMMONWEALTH UNIVERSITY, priority 2014, published 2017).
# Primed or numbered codes have the meaning given here. Where no end group is shown, it is not given here. [ ]: non-standard residue; d: D form. Dnp″ = dinitrophenol quencher on C-terminus; 2Abz = Nc1ccccc1C(=O)O
# T1: 2abz-KLNLQFFASKK-Dnp quenched fluorescent peptide substrate
# T1 chain: KLNLQFFASKK
# B1: Staphylococcus aureus Prp (phage-related ribosomal protease), wild type, untagged (protein)
# chain: MITVDITVNDEGKVTDVIMDGHADHGEYGHDIVCAGASAVLFGSVNAIIGLTSERPDINYDDNGGHFHIRSVDTNNDEAQLILQTMLVSLQTIEEEYNENIRLNYK
# B2: His6-SUMO-Prp N-terminal fusion protein (wild type) (protein)
# chain: B1 chain
# B3: wild-type Prp: S. aureus phage-related ribosomal protease, cysteine protease that cleaves L27 (protein)
# chain: B1 chain
# Assays:
# [1] = Stability of quenched peptide substrate in solution; format: physicochemical; conditions: monitored in solution over time, without enzyme
# Description: (§1) Development of Prp Assay In order to study Prp enzymology in vitro, an assay was designed using a quenched fluorescent peptide substrate derived from the cleavage motif on L27. The peptide KLNLQFFASKK (GI:15927225; SEQ ID NO:1) was chosen for its content of hydrophilic residues and fluorophore 2-amino benzoic acid (2-abz) was conjugated to the N terminus, with a dinitrophenol (Dnp) quencher conjugated to the C-terminus. The resulting peptide substrate (2abz-KLNLQFFASKK-Dnp; SEQ ID NO:1) was ordered from United Peptide in Herndon, Va. (now United Biosystems). The substrate was initially resuspended to 2 mM with a buffer containing 25 mM Tris pH8 and 300 mM NaCl. Fluorescence was measured using an excitation wavelength of 325 nm and an emission wavelength of 425 nm using a Photon Technology International QuantaMaster steady-state fluorescent spectrometer. Prp was initially purified and analyzed as a His6-SUMO N-terminal fusion protein from plasmid pEW34. His6-SUMO fusions were also made of PrpC34A (pEW39) and PrpC34S (pEW40).
# The amino acid sequence of the substrate was selected to maximize its hydrophilic residue content, aiming for the greatest possible peptide solubility. […] The assay allows us to determine Prp kinetics, and the effects of any mutants on the Km or Kcat.
# [2] = test system: S. aureus ribosome assembly (70S ribosomes, 50S subunit); assay: Polysome analysis (sucrose gradient ribosomal subunit profiles) of over-expression strains; format: cell-based, Staphylococcus aureus; conditions: overexpression in S. aureus SA178RI, compared with empty vector
# Procedure: Polysome analysis. Overnight cultures of strains for polysome analysis were inoculated into a flask of media containing inducer and appropriate antibiotics (TSB with 2 μg/ml Tet, 30 μg/ml Chl and 1 mM IPTG) beginning at a 1:100 dilution and grown until they reached a Klett reading of 90 or for 4 hours. As noted above, S. aureus expressing Prp C34A will not grow above Klett 50 for over 8 hours, so this strain was grown at a double volume compared to the others so that an equivalent number of cells could be harvested. Cell pellets from at least 100 ml of culture were resuspended in buffer PA (20 mM Tris pH 7.8, 100 mM NH4Cl, 10 mM MgCl2, 6 mM beta mercaptoethanol), broken by bead beating and then cleared by centrifugation for 10 minutes at 13000 rpm at 4° C. The clarified cell lysates were applied to the top of 10-40% sucrose gradients in buffer PA. The gradients were centrifuged for 17 hours at 19000 rpm on an SW-28 rotor at 4° C. Gradients were analyzed for absorbance at 254 nm using a Biocomp Piston Gradient Fractionator with a BIORAD Econo UV Monitor with a Full Scale of 1.0. Data were recorded using DataQ DI-158-UP data acquisition software, as has been previously reported (O'Farrell, 2012). Areas under each peak were calculated using the trapezoid method. […]
# S. aureus strain SA178RI = assay: Growth curves of S. aureus strains over-expressing Prp, L27 variants or peptide; format: cell-based, Staphylococcus aureus; conditions: T7 plasmid in SA178RI, induced with IPTG, 16 hours at 32° C.; strain still contains native L27 and Prp; compared with wild-type protein or empty vector
# Description: Bacterial Culture. All S. aureus strains used in this work are derivatives of the phage-cured, restriction-defective strain RN4220 (Kreiswirth, 1983). The S. aureus expression strain SA178RI carries a T7 RNA polymerase expression cassette under lac operator control (D'Elia, 2006). The plasmid used for expression in SA178RI was pG164, an E. coli-S. aureus shuttle vector carrying the T7 late promoter into which a lac operator, a multiple cloning site, an optimized gram-positive ribosome binding site, and a constitutively expressed copy of the lac repressor gene were introduced (D'Elia, 2006). S. aureus strains were grown in Trypticase Soy Broth (TSB) (Remel, Lenexa, Kans.) or Brain Heart Infusion (BHI) (Remel, Lenexa, Kans.) at 32° C.
# For growth curve analysis of mutant over-expression strains, overnight cultures were inoculated directly into media containing inducer and appropriate antibiotics (TSB with 2 μg/ml tetracycline, 30 μg/ml chloramphenicol and 1 mM IPTG) and monitored at OD600 for 16 hours in a 96 well plate format Biotek Microplate reader.
# Both L27 and Prp are essential in S. aureus. One common approach is to examine the effects of mutations in essential genes is to over-express mutant allele and assess the resulting phenotypes. […]
# [3] = target: Staphylococcus aureus L27 F8A-F9A with C-terminal Myc and His6 tags (un-cleavable), Q2FXT0
# [4] = target: T1, 2abz-KLNLQFFASKK-Dnp quenched …
# [5] = test system: peptide substrate 2abz-KLNLQFFASKK-Dnp (L27 cleavage motif); assay: Quenched fluorescent peptide Prp assay; format: biochemical, Staphylococcus aureus; conditions: N-terminal His6-SUMO fusion proteins; excitation 325 nm, emission 425 nm
# Description: as §1, with “His6-SUMO fusions were also made of PrpC34A (pEW39) and PrpC34S (pEW40).” left out
# In order to test the predictions that our model makes regarding residues important to substrate binding and catalysis and ultimately to search for inhibitors, it was necessary to design a high throughput-capable continuous fluorescent assay. […] In this type of assay, when the substrate is cleaved the fluorophore is released from its quenching partner and fluorescence readings at the fluorophore emission wavelength increase with time. […]
molecule,measurement,setting,value
"2abz-KLNLQFFASKK-Dnp ([2Abz]KLNLQFFASKK-{Dnp″}) [quenched fluorescent peptide substrate, 2-amino benzoic acid at N terminus, dinitrophenol quencher at C-terminus]",stability of peptide in solution,[1],stable and did not self-cleave or change fluorescence over time
MLKLNLQFF,effect on ribosomal subunit profile,[2],no anomalies
same,effect on S. aureus growth upon overexpression,S. aureus strain SA178RI,pronounced lag in the middle of the exponential growth phase
B1,N-terminal cleavage of L27 (Western blot),[3],this protein with N-terminal residues […] was no longer cleaved by Prp via Western blot
B2,fluorescence increase in the quenched fluorescent peptide assay,[4],fluorescence increase only occurred in the presence of wild type Prp fusion proteins
B3,fluorescence increase / catalysis with quenched peptide substrate,[5],fluorescence increase only occurred in the presence of wild type Prp
same,effect on ribosomal subunit profile,[2],did not deviate significantly from empty vector
